From patent publication US8323941B2, “Histone demethylation mediated by the nuclear amine oxidase homolog LSD1” (President and Fellows of Harvard College, priority 2004, dated 2012)
Blank lines part the entries; values can stand above or below the molecule they belong to.

Columns and labels:
[1] = biological target: T1, LSD1 (Homo sapiens, UniProt O60341); assay: LSD1 demethylation assay on nucleosomal substrates (mononucleosomes), Western blotting; format: biochemical; conditions: CoREST deletion mutant
T1 construct: Full length (1-851aa) and C-terminal deleted (1-427 aa) human LSD1 cDNAs; 6xHis (N); made in house; host or cells: bacteria
Method: Preparation of mononucleosome. Mononucleosome was made according to a standard protocol (Tagami et al., 2004; Utley et al., 1996). Briefly, nuclear pellet from both TSA-treated or non-treated HeLa cells was homogenized for 60 times with type A pestle to obtain oligo-nucleosomes. The oligo-nucleosomes were then digested with micrococcal nuclease (40 units/mL) for 10 mins at 30° C. The nuclease is inactivated by 5 mM EDTA. Digested materials were spun at 14000 rpm for 3 mins. Resulting supernatant was spun again for additional 3 mins at the same speed. Supernatant from the second spin was subject to 10-25% glycerol gradient sedimentation. The monocleosome-containing fractions were identified by examining aliquots of fractions (treated with proteinase K) on DNA agarose gel. An aliquot of TSA-treated or non TSA-treated mononucleosome, a kind gift from Dr. Yoshihiro Nakatani's Lab in Dana Faber Cancer Institute, Harvard Medical School (Tagami et al., 2004), was used here as a control for the quality of mononucleosome made in our lab.
Demethylation assay. LSD1 demethylation activity on free histone or nucleosomal histone was carried out as previously reported (Shi et al., 2004). […] The demethylase activity of LSD1 under various conditions was evaluated by Western blotting using K4-H3 methylation-specific antibodies.

[2] = biological target: T2, GST-LSD1 (Homo sapiens, UniProt O60341); assay: GST pulldown of HIS-tagged CoREST and mutants; format: binding; conditions: Coomassie Blue staining
T2 construct: made in house; host or cells: bacteria (inferred from 'similar procedure' to the His-tagged proteins)
Method: To identify domains of CoREST that are involved in physical interactions with LSD1, GST-LSD1 or GST was incubated with bacterially purified, HIS-tagged CoREST and its mutant derivatives. […] This places the putative LSD1-binding domain within the C-terminal functional domain of CoREST, somewhere between aa 293-381 of CoREST. […] We therefore speculate that the SANT2 domain may be involved in mediate binding to the nucleosomal substrate. Taken together, these findings are consistent with the idea that CoREST functions as a bridging protein. The weak stimulatory activity of the N-terminal CoREST (del1, aa 1-293) remains unclear at the present time.
GST and GSTLSD1 plamsids were kind gifts from Dr. Tadashi Baba's Lab in Japan (Iwase et al., 2004). Expression and purification of GST and GSTLSD1 proteins were done using similar procedure as outlined for purification of his-tagged recombinant proteins. For GST-bead pulldown experiment, 2 μg of each purified his-tagged wt or del CoREST proteins were incubated with 5 μg of bound GST and GSTLSD1 proteins at 4° C. for 4 hrs in a binding buffer (50 mM Tris, pH 8.0, 300 mM NaCl, 1 mM DTT, 0.5 mM EDTA and 0.1% NP-40). The beads were washed 3 times in the binding buffer, resuspended in 2×SDS protein sample buffer, boiled for 5 mins and loaded onto 15% SDS PAGE gel. The gel was then stained with Coomassie Blue.

stimulatory activity on LSD1 demethylation [1]: ~30 % of the wildtype CoREST activity | binding to LSD1 [2]: did not
B1: del 1: CoREST deletion mutant aa 1-293 (protein)
chain: MVEKGPEVSGKRRGRNNAAASASAAAASAAASAACASPAATAASGAAASSASAAAASAAAAPNNGQNKSLAAAAPNGNSSSNSWEEGSSGSSSDEEHGGGGMRVGPQYQAVVPDFDPAKLARRSQERDNLGMLVWSPNQNLSEAKLDEYIAIAKEKHGYNMEQALGMLFWHKHNIEKSLADLPNFTPFPDEWTVEDKVLFEQAFSFHGKTFHRIQQMLPDKSIASLVKFYYSWKKTRTKTSVMDRHARKQKREREESEDELEEANGNNPIDIEVDQNKESKKEVPPTETVPQV
modifications: left off: small tags and cut ends

binding to LSD1 [2]: did not
B2: del 4: CoREST deletion mutant aa 105-293 (protein)
chain: GPQYQAVVPDFDPAKLARRSQERDNLGMLVWSPNQNLSEAKLDEYIAIAKEKHGYNMEQALGMLFWHKHNIEKSLADLPNFTPFPDEWTVEDKVLFEQAFSFHGKTFHRIQQMLPDKSIASLVKFYYSWKKTRTKTSVMDRHARKQKREREESEDELEEANGNNPIDIEVDQNKESKKEVPPTETVPQV
modifications: left off: small tags and cut ends
